Measured values as given in patent US20240270860A1.

Legend:
Assay in all cases: peptide-array ELISA (CYS.S) [Continued]
[1] = target: T1, WY2…
T1 sequence (peptide, 2 = Cys(ACM)): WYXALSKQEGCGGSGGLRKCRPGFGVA

…2RPGWY2A = target: T2, …2RPGWY2A
T2 sequence (peptide, 2 = Cys(ACM)): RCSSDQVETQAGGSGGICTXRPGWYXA

[2] = target: T3, …2…
T3 sequence (peptide, 2 = Cys(ACM)): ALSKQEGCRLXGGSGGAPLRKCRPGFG

[3] = target: T4, SKQEGCRL2…
T4 sequence (peptide, 2 = Cys(ACM)): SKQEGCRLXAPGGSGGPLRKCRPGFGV

…2RPGWY [4] = target: T5, …2RPGWY
T5 sequence (peptide, 2 = Cys(ACM)): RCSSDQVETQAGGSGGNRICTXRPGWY

[5] = target: T6, 2…2…
T6 sequence (peptide, 2 = Cys(ACM)): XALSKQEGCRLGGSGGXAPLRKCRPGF

[6] = target: T7, Y2…2…
T7 sequence (peptide, 2 = Cys(ACM)): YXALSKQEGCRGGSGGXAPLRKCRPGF

S2…2RPGWY2AL = target: T8, S2…2RPGWY2AL
T8 sequence (peptide, 2 = Cys(ACM)): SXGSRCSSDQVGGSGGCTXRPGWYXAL

LS2…2RPGWY2AL = target: T9, LS2…2RPGWY2AL
T9 sequence (peptide, 2 = Cys(ACM)): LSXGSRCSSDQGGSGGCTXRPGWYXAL

S2…2RPGWY2 = target: T10, S2…2RPGWY2
T10 sequence (peptide, 2 = Cys(ACM)): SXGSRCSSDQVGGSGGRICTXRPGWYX

…2RPGWY2 = target: T11, …2RPGWY2
T11 sequence (peptide, 2 = Cys(ACM)): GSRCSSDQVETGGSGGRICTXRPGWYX

[7] = target: T12, …2…; remark: listed apart in the source
T12 sequence (peptide, 2 = Cys(ACM)): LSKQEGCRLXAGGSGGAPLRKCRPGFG

[8] = target: T13, QEGCRL2…
T13 sequence (peptide, 2 = Cys(ACM)): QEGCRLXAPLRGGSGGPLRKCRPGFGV

PE2LS2…2RPGWY2AL = target: T14, PE2LS2…2RPGWY2AL
T14 sequence (peptide, 2 = Cys(ACM)): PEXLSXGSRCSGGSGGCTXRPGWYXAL

LS2…2RPGWY = target: T15, LS2…2RPGWY
T15 sequence (peptide, 2 = Cys(ACM)): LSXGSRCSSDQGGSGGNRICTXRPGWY

2LS2…2RPGWY = target: T16, 2LS2…2RPGWY
T16 sequence (peptide, 2 = Cys(ACM)): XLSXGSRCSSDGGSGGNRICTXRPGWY

…2…2RPGWY = target: T17, …2…2RPGWY
T17 sequence (peptide, 2 = Cys(ACM)): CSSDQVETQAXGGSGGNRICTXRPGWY

[9] = target: T18, EGCRL2…
T18 sequence (peptide, 2 = Cys(ACM)): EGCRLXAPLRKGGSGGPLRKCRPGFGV

[10] = target: T19, EQNRI2…
T19 sequence (peptide, 2 = Cys(ACM)): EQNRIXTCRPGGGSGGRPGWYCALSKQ

PE2LS2…2RPGWY = target: T20, PE2LS2…2RPGWY
T20 sequence (peptide, 2 = Cys(ACM)): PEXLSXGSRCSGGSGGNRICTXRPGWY

E2LS2…2RPGWY2AL = target: T21, E2LS2…2RPGWY2AL
T21 sequence (peptide, 2 = Cys(ACM)): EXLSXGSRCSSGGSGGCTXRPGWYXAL

[11] = target: T22, KQEGCRL2…
T22 sequence (peptide, 2 = Cys(ACM)): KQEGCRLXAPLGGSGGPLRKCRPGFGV

2LS2…2RPGWY2 = target: T23, 2LS2…2RPGWY2
T23 sequence (peptide, 2 = Cys(ACM)): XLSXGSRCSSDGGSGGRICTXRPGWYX

2…2RPGWY2AL = target: T24, 2…2RPGWY2AL
T24 sequence (peptide, 2 = Cys(ACM)): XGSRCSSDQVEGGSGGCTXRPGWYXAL

[12] = target: T25, Y2…
T25 sequence (peptide, 2 = Cys(ACM)): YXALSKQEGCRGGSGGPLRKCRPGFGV

2LS2…2RPGWY2AL = target: T26, 2LS2…2RPGWY2AL
T26 sequence (peptide, 2 = Cys(ACM)): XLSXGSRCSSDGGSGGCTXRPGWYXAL

[13] = target: T27, REQNRI2…
T27 sequence (peptide, 2 = Cys(ACM)): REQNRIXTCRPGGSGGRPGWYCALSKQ

[14] = target: T28, …2…; remark: listed apart in the source
T28 sequence (peptide, 2 = Cys(ACM)): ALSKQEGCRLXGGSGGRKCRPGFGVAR

E2LS2…2RPGWY = target: T29, E2LS2…2RPGWY
T29 sequence (peptide, 2 = Cys(ACM)): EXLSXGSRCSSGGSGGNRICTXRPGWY

[15] = target: T30, WY2…; remark: listed apart in the source
T30 sequence (peptide, 2 = Cys(ACM)): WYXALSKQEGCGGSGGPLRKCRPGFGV

…2RPGWY [16] = target: T31, …2RPGWY; remark: listed apart in the source
T31 sequence (peptide, 2 = Cys(ACM)): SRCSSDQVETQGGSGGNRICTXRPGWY

E2LS2…2RPGWY2 = target: T32, E2LS2…2RPGWY2
T32 sequence (peptide, 2 = Cys(ACM)): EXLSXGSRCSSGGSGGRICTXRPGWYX

2…2RPGWY = target: T33, 2…2RPGWY
T33 sequence (peptide, 2 = Cys(ACM)): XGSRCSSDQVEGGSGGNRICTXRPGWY

[17] = target: T34, WY2…2…
T34 sequence (peptide, 2 = Cys(ACM)): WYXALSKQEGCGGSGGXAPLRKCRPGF

[18] = target: T35, KQEGCRL2…; remark: listed apart in the source
T35 sequence (peptide, 2 = Cys(ACM)): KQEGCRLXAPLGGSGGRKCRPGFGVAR

…2RPGWY [19] = target: T36, …2RPGWY; remark: listed apart in the source
T36 sequence (peptide, 2 = Cys(ACM)): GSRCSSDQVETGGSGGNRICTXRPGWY

[20] = target: T37, SKQEGCRL2APGGSGG2…
T37 sequence (peptide, 2 = Cys(ACM)): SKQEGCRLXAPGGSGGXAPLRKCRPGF

[21] = target: T38, NRI2…
T38 sequence (peptide, 2 = Cys(ACM)): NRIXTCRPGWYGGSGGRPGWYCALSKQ

[22] = target: T39, 2TREQNRI2…
T39 sequence (peptide, 2 = Cys(ACM)): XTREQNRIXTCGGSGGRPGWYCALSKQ

B1: antagonistic TNFR2 antibody TNFRAB1 (antibody, V domains shown)
VH: EVQLQESGGGLVKPGGSLKLSCAASGFTFSSYVMSWVRQTPEKRLEWVATISSGGSYTYYPDSVKGRFTISRDNAKNTLYLQMSSLRSEDTAMYYCARQRVDGYSSYWYFDVWGAGTAVTVSS
VL: DIVLTQSPAIMSASPGEKVTITCSASSSVYYMYWFQQKPGTSPKLWIYSTSNLASGVPVRFSGSGSGTSYSLTISRMEAEDAATYYCQQRRNYPYTFGGGTKLEIKR
[1]
  Raw luminescence data: 336
…2RPGWY2A
  Raw luminescence data: 372
[2]
  Raw luminescence data: 321
[3]
  Raw luminescence data: 369
…2RPGWY [4]
  Raw luminescence data: 247
[5]
  Raw luminescence data: 439
[6]
  Raw luminescence data: 308
S2…2RPGWY2AL
  Raw luminescence data: 538
LS2…2RPGWY2AL
  Raw luminescence data: 510
S2…2RPGWY2
  Raw luminescence data: 465
…2RPGWY2
  Raw luminescence data: 594
[7]
  Raw luminescence data: 253
[8]
  Raw luminescence data: 558
PE2LS2…2RPGWY2AL
  Raw luminescence data: 697
LS2…2RPGWY
  Raw luminescence data: 822
2LS2…2RPGWY
  Raw luminescence data: 878
…2…2RPGWY
  Raw luminescence data: 487
[9]
  Raw luminescence data: 450
[10]
  Raw luminescence data: 263
PE2LS2…2RPGWY
  Raw luminescence data: 928
E2LS2…2RPGWY2AL
  Raw luminescence data: 605
[11]
  Raw luminescence data: 457
2LS2…2RPGWY2
  Raw luminescence data: 436
2…2RPGWY2AL
  Raw luminescence data: 480
[12]
  Raw luminescence data: 381
2LS2…2RPGWY2AL
  Raw luminescence data: 603
[13]
  Raw luminescence data: 228
[14]
  Raw luminescence data: 455
E2LS2…2RPGWY
  Raw luminescence data: 389
[15]
  Raw luminescence data: 341
…2RPGWY [16]
  Raw luminescence data: 482
E2LS2…2RPGWY2
  Raw luminescence data: 478
2…2RPGWY
  Raw luminescence data: 588
[17]
  Raw luminescence data: 327
[18]
  Raw luminescence data: 430
…2RPGWY [19]
  Raw luminescence data: 587
[20]
  Raw luminescence data: 507
[21]
  Raw luminescence data: 426
[22]
  Raw luminescence data: 101
